According to the DeepSol protein solubility set:

Test: soluble on expression in E. coli; label from the status in PepcDB or PDB records

| Sequence | soluble on expression in E. coli |
| --- | --- |
| MQLPLSYWIESTQFPTFPRLSENIKTKVAIIGAGITGITTAYLLAKEGIDVVLIDSGRILNGTTGHTTAKVTAQHDLIYDELINHFGVEKARLYYESNNQALQFINKTVQTYKIDCNFSNEDSYLYTTTDNGLRNLSKEYEAYQKLNIPCDYVQSLSIPIPVQSALVMKNQAQFHPLLYLKTLLEKFVEMGGKVYEQTTAMDVEKGDYSQIITKEGHHITCEYVVSCSHFPFYDANSFFFTRMYAERSYALAIKAKTEYPGGMYLSIDDPKRSLRYITNNGEKLILIGGESHKTGQGINTMLHYEALYSFAEATFGIDEVSYRWSAQDLITLDKLPYIGHINERNPNIFVATGYRKWGMTTGTAAAHLLKDSILKVHSPYKELYAPSRFHANPDIKTFLSQNIDVAKHLIAGLEHHHHHH | not soluble |
| AHHHHHHGSKVIASAPAKVILFGEHSVVYGKPAIAAAIDLRTFVEAELIREKKIRIEAHDIKVPGLTVSFSENEIYFETDYGKAAEVLSYVREAINLVLEEADKKNVGIKVSITSQIPVGAGLGSSAAVAVATIGAVSKLLGLELSKEEIAKMGHKTELLVQGASSGIDPTVSAIGGFIFYEKGKFEHLPFMELPIVVGYTGSSGPTKELVAMVRKRYEEMPELIVPILEAMGKVVEKAKDVILSNVDKEEKFERLGVLMNINHGLLDALGVSTKKLSELVYAARVAGALGAKITGAGGGGCMYALAPNKQREVATAIRIAGGTPMITEISREGLKIEEVIK | not soluble |
| MTRQHSTQPDPKLDLVLERTIDVPPALVWQAWTQPEHIKHWLTPAPWQTVRCDVDLRPGGRFRFVMRSPEGEEHTHDCCYLEIVEGSRLVWTNALLPGFRPAGGGGDVPAFTAVIRIEPHDQGTRYTATAMHGTQAGCRQHSDMGFHDGWGAALDQLVAHARNMQQASLEHHHHHH | soluble |
| MEPKRIREGYLVKKGSVFNTWKPMWVVLLEDGIEFYKKKSDNSPKGMIPLKGSTLTSPCQDFGKRMFVLKITTTKQQDHFFQAAFLEERDAWVRDIKKAIKCIEGGQKFARKSTRRSIRLPETIDLGALYLSMKDPEKGIKELNLEKDKKVFNHCLTGSGVIDWLVSNKLVRNRQEGLMISASLLSEGYLQPAGDLSKNAADGIAENPFLDSPDAFYYFPDSGFFCEENSSDDDVILREEFRGVIIKQGCLLKQGTGENWKVRKFILREDPAYLHYYDPAGGEDPLGAVHLRGCVVTSVESSHDVKKSDEENLFEIITADEVHYYLQAATSKGRTEWIKAIQVASRTGK | soluble |
| MSLEPLAETYQALVLAVRDYVTKNGFHGAVLGLSGGIDSALTLAIAADAIGADKVQAVMMPFRYTAQMSVEDAKEQAERMGVEFNIISIEPMFEGFMAQLAPLFEGTARDTTEENLQARCRGVLLMALSNKRRCIVLTTGNKSEMAVGYATLYGDMAGGFDVLKDVPKTLVFKLCEYRNSVDYVIPQRVIDRPPSAELAPDQVDQDSLPPYDILDAILKRYVEEDASVADMVAEGFEEAVVRKVIRLVDLNEYKRRQAAVGPRITARNEGHHHHHH | not soluble |
| MSTQPSHPSSSNDLDSSIGTARIEVVSVPVKPRNKFSTTPVKRVEMKKSKESDSVDKALKVKSSLDCMKLEKPAPTTCEMKAA | soluble |
| MNSLFLLLFICFNSGCGRKYYEEDIDRAFRSAEAEILPFRPHNVFSSDDSLMLNYSIAALAAIKMAQKTRDPRQKLPHHLCPLKKYNCLYGKYRHSDGRCTNIFFALSGSAYSSFSRRIPANYDDDISTPRLHGYRNGLLPPPAVVEKQIARTPAIYAISLTNTFLEFSEFLYNDLVKFVRLQDGLGCCGTGKSGECLNFGENFLDCYIRSAPSPRAHCSLGRREQMNLATAFLDAGPIYQDLRDTSKGKISSSFTLESTTKSSIHSLLIDEHNWVVDQIQKKFPDMGLELIFEEARKFVIAELQHITFEQFLPILLGDETMKKYDLRASHCDGGSCHEVEANTLNEFGSAVGLFYKFMTSSDKIYNPSLYSTSDFSTSPTSSSSKSPNVAEIISKGRDHGIATYSQWRKECGGGELKTYEDLIDLIDSNILKSLRDLYPDVLDVDLILLGIAENPVYGSLLGPTFGCIMALQFQKTKFGDTYWYTNKLTEDQLEEVKKTSISAMMCRHQKTSIIQKDVFKAADNFQNIPIFCNSSVFAKPDFSKWVETPEKHKNEQFDDILGECILEVFEARNRQRPATLQEGLHNSVALKSYGSMMLAKDEAVNEANVSLILLEATKKLVKLKHIELDSIQSVNIGEDFGKKSDSQCNPKNLPCDSTNPYRSYTGWCNNLETPSLANTFRELRRLLPPAYEDGIDLPRSKTITGSRLPSPRVISNMVHHAKKIEHVKYSHFVMEFGQFIDHDITHSPVDQNSDGTALNCSRCDSGRFVSPSCFPIPVPVNDVHFEPFSCLSFVRSLPAQKTLGYRNQMNQVSAYLDGSVMYGSTKCEGDRLRTFQDGKMKTTQTSRAPRHYGITLSQSDESEQDGCVSAPDAPCFIAGDDRNSQQTLLIAVHSVFHREHERITTTLKEINPNWDDEKIYQETRKLISAEFAHIVYNEYLPIIIGQKLIDDYDLRPRQDGYYDGYENCDASILQPFATAAFRFGHSTVTRFTPMQETVHDPATCVVDLASDFLNMSKIYDNEAVEQILGGMHGKHQMMTDRFVDDAIRNFLFSDRGRRGTGLDLISINIQRGRDHGIPPYNHYRSFCGLSRLTSFYSIFSDINQDGLTAIGKVYESPDDIDLFTGIVSEKTIPGGIVGPTAACIIAEQFRRLKKCDRFYYENGEDHSKFSASQLKEVRKTSMSALICANTKVPKISKDVFSVPDPFRYS | soluble |
| MSASSLLEQRPKGQGNKVQNGSVHQKDGLNDDDFEPYLSPQARPNNAYTAMSDSYLPSYYSPSIGFSYSLGEAAWSTGGDTAMPYLTSYGQLSNGEPHFLPDAMFGQPGALGSTPFLGQHGFNFFPSGIDFSAWGNNSSQGQSTQSSGYSSNYAYAPSSLGGAMIDGQSAFANETLNKAPGMNTIDQGMAALKLGSTEVASSVPKVVGSAVGSGSITSNIVASSSLPPATIAPPKPASWADIASKPAKQQPKLKTKNGIAGSSLPPPPIKHNMDIGTWDNKGPVAKAPSQALVQNIGQPTQGSPQPVGQQANNSPPVAQASVGQQTQPLPPPPPQPAQLSVQQQAAQPTRWVAPRNRGSGFGHNGVDGNGVGQSQAGSGSTPSEPHPVLEKLRSINNYNPKDFDWNLKHGRVFIIKSYSEDDIHRSIKYNIWCSTEHGNKRLDAAYRSMNGKGPVYLLFSVNGSGHFCGVAEMKSAVDYNTCAGVWSQDKWKGRFDVRWIFVKDVPNSQLRHIRLENNENKPVTNSRDTQEVPLEKAKQVLKIIASYKHTTSIFDDFSHYEKRQEEEESVKKERQGRGK | soluble |
| MSLTEKFRPTLKDVARQAGVSIATASRALADNPAVAASTRERIQQLASDLGYRANAQARALRSSRSNTIGVIVPSLINHYFAAMVTEIQSTASKAGLATIITNSNEDATTMSGSLEFLTSHGVDGIICVPNEECANQLEDLQKQGMPVVLVDRELPGDSTIPTATSNPQPGIAAAVELLAHNNALPIGYLSGPMDTSTGRERLEDFKAACANSKIGEQLVFLGGYEQSVGFEGATKLLDQGAKTLFAGDSMMTIGVIEACHKAGLVIGKDVSVIGFDTHPLFALQPHPLTVIDQNVEQLAQRAVSILTELIAGTVPSVTKTTIPTALIHRESIINSTLRKEGHHHHHH | soluble |
| MYLVTGATGQLGLRVVRRCITLGLPVRAFVRLTSQYELLKEWGAEIFIGDLQQPRDIQAAMKGVEAVICCHGSQLLSRAIQAIDYRATLDVIQAAQEQGVRYLTLISPLAVTGDRQQSPFLKAKYEVEQVLISSGLNYSIFRCPTLMSSLLPLAERFQQTGVYIVLGDPQHRLQLLSPDDLARCILIASQASQPAIFSMAHPEVFTRQEIADRLGRFFNRRPFVMTVPLSVIDGARQFLGVMSRDLDASLGTLRTLLAYESLCPASEIERAQTYFQLSFESLETFLGRYFLEHHHHHH | not soluble |
| MGSDKIHHHHHHMENKEVIIIGAGAAGVGMGVALKDFGINNFAILERKQVGNSFIKWPEQTRFITPSFTSNGFGMPDLNAIAIDTSPSYTLGEERLSGKDYAKYLQLVSEEYKLPIKTNCKVQSIKKEKTGYLLETTKGFIYAEYVIFAMGEFSFPNKSSIKGAYKNSLHYGEINSWIEIKGDKQTIIGGNESAIDAAIELAKLGKRVTIYTDTLGLNIRDADPSKRLAPRTRQRFFDLRVNQKKLDSIKIYTTTKVKKIEKKSTSYILITENGKSLPVENIPILCTGFKNGTKSITASLFKYKENGEVLLNDFDESTIAKNIFLTGPNVRKGNTIFCYIYKFRQRFAVIANEIARRKHITIDEKKLSYYKNQSFYLDGCSGCEVRCSC | not soluble |
| MKGYGEMAKNNPTRITAEPGKQEIIITREFDAPRELVFKAFTDPDLYTQWIGPRGFTTALKIFEPKNGGSWQYIQKDPEGNEYAFHGVNHDVTEPERIISTFEFEGLPEKGHVILDTARFEALPGDRTKLTSHSVFQTIEDRDGMLQSGMEEGINDSYERLDELLEKMKKLEHHHHHH | soluble |
| MIQYYYTKKEWGVVMEKEELKILEELRRILSNKNEAIVILNNYFKGGVGKSKLSTMFAYLTDKLNLKVLMIDKDLQATLTKDLAKTFKVELPRVNFYEGLKNGNLASSIVHLTDNLDLIPGTFDLMLLPKLTRSWTFENESRLLATLLAPLKSDYDLIIIDTVPTPSVYTNNAIVASDYVMIPLQAEEESTNNIQNYISYLIDLQEQFNPGLDMIGFVPYLVDTDSATIKSNLEELYKQHKEDNLVFQNIIKRSNKVSTWSKNGITEHKGYDKKVLSMYKNVFFEMLERIIQLENEKE | soluble |
| MSLSRKNQELAKIFERMADILEFLGENPYRIRTYRRVANLISELQEDVEKAFYTRKLHHMPGIGESTLLKIEEFLKTGTIKKYEELRRMVPEDLLELLDAPGVGPKTLKIAYEQLGIRTKEEFIEALKKGKFNKIRGFGPVKALKILRGIELWEKSKERISLIEAYPMAQEVLKYMERIKDKYENISIAGSLRRMKETIGDIDILVSAKKENWKAIHEHFTKYPGLLEVLAKGETKSSIILDTGRQVDLRTVEPISWGAALQYFTGSKQHNIRIRDIAKEKGLKVNEYGVFKVDTEERIAGETEEGVYEVLGMQWIPPELREDWGEIELALEHKLPRLVELKDIKGDLHMHTNWSDGVNTLEEMVETAYKLGYQYIVIGDHSQSARVANGLDPERYKQQWKEIDRLNKEYNPKGFYILKGAEVDILPDGSLDLPDEVLEQFDFVVASVHSRFEQDNTERIIKAMENPYVNMIGHPTGKQYGYREGYPVNIEKLIQKAKETGTALELNTQRMDLSPENVRKCMEAGVYIGIVTDAHSARQLHLMFLGVGLARRGWATPDKVINTFDLEGLKEFVYKKRKNLAREGHHHHHH | soluble |
| GPGSMDKTKDSLIAVYDLGGGTFDISVLEIAGGVFEVKATNGDTHLGGEDFDLALSDYILEEFRKTSGIDLSKERMALQRVREAAEKAKCELSSAMETEVNLPFITANADGAQHIQMHISRSKFEGITQRLIERSIAPCKQCMKDAGVELKEINDVVLVGGMTRMPKVVEEVKKFFQKDPFRGVNPDEAVALGAATLGGVLRGKASDLILVDVTPLSLGTSVVGDVFTRMIPKNTTIPCMRSHIFTTVDDGQTAIKFKVFQGEREIASENQIRGEFDLSGIPPAPRGVPQIEVTFDIDANGICHVTAKDKATGKTQNITITANGGLSKEQIEQMIRDSEQHAEADRVKRELVEVRNNAETQLTTAERQLGEWKYVSDAEKENVKTLVAELRKAMENPNVAKDDLAAATDKLQKAVMECGRTEYQQAAAANSGQC | not soluble |
| MLKFNEEQQIKDIRGALALRSDVEKVVDQVWTKGFDAVYYIGIGGTYASAMQAVTYANGKSNLPIYVQHAAEYYTTGNKRLTEKSFVILSSVTGTTQEVVQAVQEIKKVGATLFGFIDAKDSLLADLCDYVVTYPAPGTEQIKFFMVADRLMQKNNEFTDYENYYQELEEYLPTGLAEAEKSADAFGLAFAEKHRHDSIHYFIGAGNQWGAVYSYAMCYWEEQSWLRSKSIHAAEFLHGTLEIVDETTPVTLFIGEDEQRPLAERVAKLLPKICANYTIIDSKAYELPGISEKYRGRVVSFLLMHAVTQRIDAHVEKLNCHPLEIRRYYRQFDY | not soluble |
